According to patent US20060134087A1, “ITI-D1 Kunitz domain mutants as hNE inhibitors” (Dyax Corp., published 2006):
Where a chain is given by its changes, count along the chain named.

B1: MA-ITI-D1 display phage (other)
chain: KEDSCQLGYSAGPCMGMTSRYFYNGTSMACETFQYGGCMGNGNNFVTEKDCLQTCRTVGA
B2: MA-BITI display phage (designed binder)
chain: RPDFCQLGYSAGPCMGMTSRYFYNGTSMACETFQYGGCMGNGNNFVTEKDCLQTCRGA
B3: MA-BITI-E7 display phage (designed binder)
chain: B2 chain with M15V, G16A, T18F, S19P
B4: MUTP1 display phage (designed binder)
chain: B2 chain with M15I, T18F
B5: MA-BITI-E7-1222 display phage (designed binder)
chain: B2 chain with A11T, M15V, G16A, T18F, S19P

Columns and labels:
[1] = molecular target: T1, Human Neutrophil Elastase (human, UniProt P08246); experiment: abbreviated fractionation of display phage on hNE beads
Description: To test if ITI-D1E7-display phage bind hNE beads, pH elution profiles were measured. Aliquots of EpiNE-7, MA-ITI-D1, and MA-ITI-D1E7 display phage were incubated with hNE beads for three hours at room temperature (RT). The beads were washed and phage were eluted as described in U.S. Pat. No. 5,223,409, except that only three pH elutions were performed.

[2] = molecular target: T1, Human Neutrophil Elastase; experiment: display phage eluted from hNE beads, normalized to MA-EpiNE7 in a concurrent elution
[3] = molecular target: T1, Human Neutrophil Elastase; experiment: display phage on hNE beads, extended pH fractionation
Excerpt: We characterized the binding properties to hNE-beads of MA-BITI and MA-BITI-E7 display phage using the extended pH fractionation procedure described in U.S. Pat. No. 5,223,409.

[4] = molecular target: T1, Human Neutrophil Elastase; experiment: pH elution of display phage from hNE beads, abbreviated protocol
Excerpt: (§1) Total pfu applied to the beads are in column two. The fractions of this input pfu recovered in each pH fraction of the abbreviated pH elution protocol (pH 7.0, pH 3.5, and pH 2.0) are in the next three columns. For data obtained using the extended pH elution protocol, the pH 3.5 listing represents the sum of the fractions of input recovered in the pH 6.0, pH 5.5, pH 5.0, pH 4.5, pH 4.0, and pH 3.5 elution samples. The pH 2.0 listing is the sum of the fractions of input obtained from the pH 3.0, pH 2.5, and pH 2.0 elution samples. The total fraction of input pfu obtained throughout the pH elution protocol is in the sixth column. The final column of the table lists the total fraction of input pfu recovered, normalized to the value obtained for MA-BITI-E7-141 phage.

[5] = molecular target: T1, Human Neutrophil Elastase; experiment: pH elution of display phage from hNE beads, extended protocol
Excerpt: as §1

Binder | Normalized fraction of input (relative to recovered MA-EpiNE7) [2] [ratio] | SUM, fraction of input from all pH elution fractions [3] | SUM, total pfu from all pH elution fractions [3] [pfu] | pfu eluted at pH 2.0 [3] [pfu] | pfu eluted at pH 2.5 [3] [pfu] | pfu eluted at pH 3.0 [3] [pfu] | pfu eluted at pH 3.5 [3] [pfu] | pfu eluted at pH 4.0 [3] [pfu] | pfu eluted at pH 4.5 [3] [pfu] | pfu eluted at pH 5.0 [3] [pfu] | pfu eluted at pH 6.0 [3] [pfu] | pfu eluted at pH 7.0 [3] [pfu] | pfu/Input eluted at pH 2.0 [3] | pfu/Input eluted at pH 2.5 [3] | pfu/Input eluted at pH 3.0 [3] | pfu/Input eluted at pH 3.5 [3] | pfu/Input eluted at pH 4.0 [3] | pfu/Input eluted at pH 4.5 [3] | pfu/Input eluted at pH 5.0 [3] | pfu/Input eluted at pH 6.0 [3] | further results
B1 | 0.0067 | – | – | – | – | – | – | – | – | – | – | – | – | – | – | – | – | – | – | – | SUM, total fraction of input from all pH elution fractions [1]: 1.4e-05 fraction of input; fraction of input eluted at pH 2.0 [1]: 1e-06 fraction of input; fraction of input eluted at pH 3.5 [1]: 3e-06 fraction of input; fraction of input eluted at pH 7.0 [1]: 1e-05 fraction of input; fraction of input in Wash [1]: 1e-05 fraction of input
B2 | 0.018 | 3.9e-05 fraction of input | 800000 | 7700 | 22000 | 22000 | 86000 | 31000 | 44000 | 96000 | 250000 | 240000 | 3.8e-07 fraction of input | 1.1e-06 fraction of input | 1.1e-06 fraction of input | 4.3e-06 fraction of input | 1.6e-06 fraction of input | 2.2e-06 fraction of input | 4.8e-06 fraction of input | 1.2e-05 fraction of input | pfu/Input eluted at pH 7.0 [3]: 1.2e-05 fraction of input
B3 | 0.13 | 0.00029 fraction of input | 1.8e+06 | 8700 | 23000 | 89000 | 90000 | 240000 | 380000 | 370000 | 280000 | 280000 | 1.4e-06 fraction of input | 3.8e-06 fraction of input | 1.5e-05 fraction of input | 1.5e-05 fraction of input | 4e-05 fraction of input | 6.3e-05 fraction of input | 6.2e-05 fraction of input | 4.7e-05 fraction of input | pfu/Input eluted at pH 7.0 [3]: 4.7e-05 fraction of input
B4 | – | – | – | – | – | – | – | – | – | – | – | – | – | – | – | – | – | – | – | – | Fraction of Input recovered at pH2.0 [4]: 0.00012 fraction of input; Fraction of Input recovered at pH3.5 [4]: 0.00092 fraction of input; Fraction of Input recovered at pH7.0 [4]: 0.00018 fraction of input; Recovery Relative to BITI-E7-141 [4]: 0.46 ratio; Recovery, Total fraction of input [4]: 0.0012 fraction of input
B5 | – | – | – | – | – | – | – | – | – | – | – | – | – | – | – | – | – | – | – | – | Fraction of Input recovered at pH2.0 [5]: 6.4e-05 fraction of input; Fraction of Input recovered at pH3.5 [5]: 0.0004 fraction of input; Fraction of Input recovered at pH7.0 [5]: 7.2e-05 fraction of input; Recovery Relative to BITI-E7-141 [5]: 0.21 ratio; Recovery, Total fraction of input [5]: 0.00054 fraction of input
